Experimental data published in IntAct's records for PubMed 18388957.

B1: Inhibitor of growth protein 1 (Homo sapiens), Q9UK53-2 (parent)
chain: MLSPANGEQLHLVNYVEDYLDSIESLPFDLQRNVSLMREIDAKYQEILKELDECYERFSRETDGAQKRRMLHCVQRALIRSQELGDEKIQIVSQMVELVENRTRQVDSHVELFEAQQELGDTAGNSGKAGADRPKGEAAAQADKPNSKRSRRQRNNENRENASSNHDHDDGASGTPKEKKAKTSKKKKRSKAKAEREASPADLPIDPNEPTYCLCNQVSYGEMIGCDNDECPIEWFHFSCVGLNHKPKGKWYCPKCRGENEKTMDKALEKSKKERAYNR

Variants of: B1
Settings: with nqo1_human NQO1, P15559

With S126A as the variant, how does the “effect of a mutation on the interaction” value read?
Its value is “disrupting interaction”.
